Reference: patent US20250313612A1 (Adimab, published 2025)
Positions count from the first letter of the chain named.

B1: ADI-14485 (antibody, V domains shown)
VH: EVQLVESGAEVKRPGSSVKVSCKVVGGSFSNYAISWVRQAPGQGPEYLGGIIPAFRTAKYAKKFQDRLTITADESTSTAYMEMRGLTSDDTGLYYCARPEGDFGDLKWLRSPFDYWGQGTLVTVSS
VL: EIVLTQSPATLSVSPGQRVTLSCRASQGVSINLAWYQQKPGQPPRLLIYGASTRATDIPARFSGSGSGTDFTLTISSLQSEDFAVYYCQQYDDWPPQLTFGPGTKLEIK
notes: full-length IgG (yeast-expressed); also called Antibody Number 46; Ab# 46
B2: ADI-14477 (antibody, V domains shown)
VH: EVQLVESGPTLVKPTQTLTLTCSLSGFSLTTRGVGVGWIRQPPGKAPECLGFVYWDDDNRYSPSLRGRLTISKDTSKNQVVLTLTNMDPLDTATYYCVHSDLYDRGGYYLFYFDDWGQGTLVTVSS
VL: DIQVTQSPSSLSASVGDRVTITCRASQPIASYLNWYQQKPGQAPKLLIYAASMLQSGAPSKFSGRGSGTDFTLTITTLQPEDFATYYCQQSYTFPYTFGQGTKVEIK
notes: full-length IgG (yeast-expressed); also called Antibody Number 39; Ab# 39
B3: ADI-14542 (antibody, V domains shown)
VH: QVQLVQSGAEVKKPGESLKISCKGSGYVFSSYWVAWVRQMPGKGLEWMGIIYPHDSDTRYSPAFQGQVTISADKSINTAYLQWSSLKASDTAMYYCTIILIPAPIRAPDGFDIWGQGTTVTVSS
VL: NFMLTQPHSVSESPGKTVTISCTGSGGTIASNYVQWYQQRPGSVPTTVIYENNERPSGVPDRFSGSIDRSSNSASLTISGLKTEDEADYYCQSYDSSYHVVFGGGTKVTVL
B4: ADI-14541 (antibody, V domains shown)
VH: EVQLVESGGGLVRPGGSLRLSCAASGFAFSSYSLHWVRQAPGRGLEWVASISAGSSFTDYAASVRGRFTISRNIANSLYLQMNRLRAEDTAVYYCARVIGDGTILGVVF
VL: QSVLTQPPSVSGAPGQRVTISCTGGRSNIGAGYDVHWYQQLPGTAPKLLIYGNINRPSGVPDRFSGSKSGTSASLAITGLLAEDEADYYCQSYDSSLSVIFGGGTKLTVL
B5: ADI-14543 (antibody, V domains shown)
VH: QVQLVQSGAEVKKPGSSVKVSCKASGDTFSSYAISWVRQAPGQGLEWMGGVLPMLGTANYAQRFRGRVTLTADGSTNTAYMEMSSLRLDDTAVYYCARVAGLGNSYGRYPDLWGQGTLVTVSS
VL: DIVMTQSPSSLSASVGDRVTITCRASQGISSSLAWYQQKPGKAPELLIYAASSLHSGVPSRFRGSGSGTDFTLTISSVQPEDFATYYCQQANSFPYTFGQGTKLEIK
B6: ADI-14540 (antibody, V domains shown)
VH: QVQLVESGGGVVQPGRSLRLSCAASGFTFTDYAMHWVRQAPGKGLQWVALISYNGRIQYYADSVKGRFTISRDDSKNTLYLQMNSLRAGDTAVYYCARDGDLVAVPAAIGFDSWGQGTLVTVSS
VL: DIQVTQSPDSLAVSLGERATINCKSSQSVLYTSNNKNYLAWYQQKSRQPPKLLIYWASTRESGVPERFSGSGSGTDFTLTISSLQAEDVAVYYCQQYSSPPYTFGQGTKVEIK
B7: ADI-14550 (antibody, V domains shown)
VH: QVQLVQSGGGVVQPGRSLRLSCAASGFTFSDYAMHWVRQAPGKGLQWVSLISYNGRKKYYADSVKGRFTISRDDSKNTLYLQMNPLRPDDTAVYYCARDGDIVAVPAAIGLDYWGQGTLVTVSS
VL: B6 VL with Q3V, V4L, D9E, K24N, R47G, V110L
B8: ADI-14557 (antibody, V domains shown)
VH: QVQLQQWGAGLLKPSETLSLTCQVYGVSFSDYYWNWIRQSPGKGLEWIGDVNHIGNTDYNPSLKSRVSISVDTSKNQFSLTLRSVTAADTALYYCARGRKLFEVPPKAPDYWGQGTLVTVSS
VL: DIVMTQSPGTLSLSPGERATLSCRASQSVSSTYLAWYQQKPGQAPRLLIYGASIRATGIPDRFSGVGSGTDFTLTISRLEPEDVAVYYCQQYGSSPQTFGQGTKVEIK
B9: ADI-14555 (antibody, V domains shown)
VH: QVQLVQSGGGLVQPGGSLRLSCAASGLTFSSYAMSWVRQAPGKELEWVSSISESGVDTYYADSVKGRFTVSRDNSKSTLYLQMSSLGGDDTAVYYCAKAYCSNKACHGGYFDYWGQGTLVTVSS
VL: ETTLTQSPDTLSLSPGERATLSCRASQSVRNYLAWYRQKPGQAPRLLIYDASNLATGIPARFSGSGSGTDFTLTISSLEPEDFAVYYCHQRSDWPLTFGPGTKVEIK
B10: ADI-14545 (antibody, V domains shown)
VH: EVQLVESGGGLVKPGGSLRLSCAASGFTFSNAWMSWVRQAPGKGLEWVGRVKSKSKGGTTHYAEAVKGRFTISRDDSKNTLYLQMQSLKTEDTAVYYCTSHAYNSDWFVTTDYYYYMDVWGKGTTVTVSS
VL: DIVLTQSPSSLSASVGDRVTFTCRASQSISNYLNWYQQKPGKAPKVLIYGASNLLSGVPSRFIGSGSGTDFTLTINSLQPEDFATYYCQQCYSAPITFGQGTRLEIK
B11: ADI-14544 (antibody, V domains shown)
VH: QVQLVQSGAEVKKPGESLKISCKGAGFGSTNSWIGWVRQMPGKGLEWMGVIFPGDSDTKYSPTFQGQVTISVDKSINTAYLQWSSLKASDTAIYYCARMLASVGLSNFDAWGQGTLVTVSS
VL: QPVLTQPPSVSLAPGKTATITCGGNNIGGKSVHWYQQKPGQAPVLVIDYDSDRPSGIPERFSGSNSGNTATLTINRVEAGDEADYYCQVWDSISDHVLFGGGTKLTVL
B12: ADI-14548 (antibody, V domains shown)
VH: EVQLVESGGGLVQPGGSLRLSCAASGFSFSTSWMSWVRQAPGKGLEWLANIKEDGSKKIYVDSVKGRFSISRDNAKNSLYLQMTSLRAEDTAVYYCARDVWGWELVGWLDPWGQGTLVTVSS
VL: SYELTQPPSVSVAPGKTASITCGGSNIGSRSVHWYQQKPGQAPVLVVYEDHDRPSGIPERFSGSNSGNTATLTISRVEAGDEADYYCQVWDSSRDHVVFGGGTKVTVL
B13: ADI-14533 (antibody, V domains shown)
VH: QVQLVQSGAEVKKPGSSVIISCKASGGTFRNYGFTWVRQAPGQGLEWLGGIIPMFETVRYAQKFQGRVTITADENTNTAFLAVSSLRSEDTGVYFCARDLQTGIMSSVRSEYRGFMDPWGQGTLVTVSS
VL: QSVLTQPPSVSGAPRQRVTISCSGSSSNIGTNAVNWYQQLPGKSPKVLIYYDELVPSGVSDRFSGSRSGTSASLAISGLRSEDEAYYYCAAWDDSLNGWVFGGGTQLTVL
B14: ADI-14556 (antibody, V domains shown)
VH: EVQLVESGGGLVQPGGSLRLSCAASGFTFRSYWMTWVRQAPGKGLEWVASINDEGNTKYYVDSLKGRFTISRDNAKNSLYLQMNSLRAEDTAVYYCARESGLPRGAFQIWGPGTMVTVSS
VL: EIVLTQSPVTLSLSPGERATLSCRASQSVGTFLAWYQHKPGQAPRLLIYDASNRASAIPARFSGSGSGTDFTLTISSLEPEDFAVYYCQHRSDWWTFGQGTKVEIK

Target: T1, RSV F ectodomain stabilized in the postfusion conformation (F ΔFP), subtype A (Respiratory syncytial virus subtype A, UniProt P03420 26-109; P03420 147-524)
T1 construct: extracellular domain; trimer; furin-cleaved; also called Postfusion subtype A
Assay: BLI, IgG on AHQ sensor, 100 nM antigen

Row | Binder | Kd [nM]
1 | B1 | 1.52
2 | B2 | 0.361

Target: T2, RSV F ectodomain stabilized in the postfusion conformation (F ΔFP), subtype B (Respiratory syncytial virus subtype B, UniProt P13843 26-109; P13843 147-524)
T2 construct: extracellular domain; trimer; also called Postfusion subtype B; postF subtype B
Assay: BLI, IgG on AHQ sensor, 100 nM antigen

Row | Binder | Kd [nM]
3 | B1 | 0.642
4 | B2 | 1.22

Target: RSV F protein of recombinant mKate-RSV, subtype A (strain A2) (Respiratory syncytial virus subtype A …, UniProt P03420 26-574)
Assay: cell-based or functional assay

Row | Binder | Neut IC50 subtype A [µg/mL]
5 | B1 | > 10
6 | B2 | > 10

Target: RSV F protein of subtype B (18537) on recombinant mKate-RSV (Respiratory syncytial virus subtype B …, UniProt P13843 26-574)
Assay: cell-based or functional assay

Row | Binder | Neut IC50 (µg/ml) subtype B [µg/mL]
7 | B3 | 4.3
8 | B4 | 0.106
9 | B5 | > 10
10 | B6 | > 10
11 | B7 | > 10
12 | B8 | > 10
13 | B9 | > 10
14 | B10 | 0.073
15 | B11 | > 10
16 | B12 | 0.094
17 | B13 | 0.442
18 | B14 | > 10

Target: RSV F protein of subtype A (strain A2) on recombinant mKate-RSV (Respiratory syncytial virus subtype A …, UniProt P03420 26-574)
Assay: cell-based or functional assay

Row | Binder | Neut IC50 (µg/ml) subtype A [µg/mL]
19 | B3 | 0.008
20 | B4 | 0.023
21 | B5 | > 10
22 | B6 | > 10
23 | B7 | 2.62
24 | B8 | > 10
25 | B9 | > 10
26 | B10 | 0.036
27 | B11 | > 10
28 | B12 | 0.034
29 | B13 | > 10
30 | B14 | > 10

Target: RSV F protein of recombinant mKate-RSV, subtype B (18537) (Respiratory syncytial virus subtype B …, UniProt P13843 26-574)
Assay: cell-based or functional assay

Row | Binder | Neut IC50 subtype B [µg/mL]
31 | B1 | 2.81
32 | B2 | > 10
